Data: the nanobody polyreactivity screen of Harvey et al. (2022)

Assay: yeast display, Sf9 membrane polyspecificity reagent, FACS + sequencing; frameworks hold sequencing errors
Summary of the method: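 Polyreactivity labels are assigned by the sorting gate from which each nanobody was recovered. The gates were low and high (top ~1%), set on anti-HA fluorescence for expression and streptavidin fluorescence for reagent binding. Before sorting, galactose-induced (36–48 hours) yeast display cells were stained for 1 hour at 4 °C with 10% biotinylated, detergent-solubilized Sf9 membrane reagent.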

Sequence | polyreactivity (PSR sort gate)
QVQLVESGGGLVQAGGTLRLSCAASGPMFTLNAMGWYRQAPGKERELVAAINRGGSTYYADSVRGRFTISRDNAKNTVYLQMNSLKPEDTAVYYCAARRRQGGHDYWGQGTQVTVSS | high polyreactivity
QVHLVESGGGLVQAGGSLRLSCAASGSIFVQYAMGWYRQAPGKERELVAAITRDGDRTYYADSVKGRFTISRDNAKNTVYLQMNSLKPEDTAVYYCAARHSSIRSPQYDYWGQGTQVTVSS | high polyreactivity
QVQLVESGGGLVQAGGSLRLSCAASGSTFQVYAKGWYRQAPGKERELVAAIDSGVSTYYADSVKGLFTFSRDNAKNTVYLQMNSLKPEDTAVYYWYGYDYWGQGTQVTVSS | low polyreactivity
QVQLVESGGGLVQAGGSLRLSCAASGSTFARYAMGWYRQAPRKERELVAAISRSGGSTNYADSVKGRFTISRDNAKNTVYLQMNSLKPEDTAVYYCAVRSGYYDKYVRGYDYWGQGTQVTVSS | high polyreactivity
QVQLGESGGGLVQAGGSLRLSCAASGSTFNRYAMGWYRQAPGKERELVAAISFSGGRTYYADSVKGRFTISRDNAKNTVYLQMNSLKPEDSAVYYCTKVVYGYFTRAYTYNYWGQGTQVTVSS | high polyreactivity
QVQLVESGGGLVQAGGSLRLSCAASGSTFLNNAMGWYRQAPGKERELVATITSGGITNYADSVKGRFTISRDNAKNTVYLQMNSLKPEDTAVYYCNADTWGFTYYYWGQGTQVTVSS | low polyreactivity
QVQLVESGGGLVQAGGSLRLSCAASGIIFSGNAMGWYRQAPGKERELVAAITLSGGSTYYADSVKGRFTISRDNAKNTVYLQMNSLKPEDTAVYYCNAVYDTNYSLRDIDTEYGSWGQGTQVTVSS | low polyreactivity
QVQLVESGGCLVQAGGSLRLSCAASGIIFTYYAMGWYRQAPGKERELVARISSSGGRTYYADSVKGRFTISRDNAKNTVYLQMNSLKPEDTAVYYCAARVFSRPPQPGSPRGYRGFDYWGQGTQVTVSS | high polyreactivity
QVQLVESGGGLVQAGGSLRLSCAASGRTFDSYTMGWYRQAPGKERELLADITFTGGSTYYADSVKGRFTISRDNAKNTVYLQMNSLKPEDTAVYYCAAESVAILGLVYPKGYGYWGQGTQVTVSS | low polyreactivity
QVQLVESGGGLVQAGGSLRLSCAASGGIFWFNAMGWYRQAPGKEREFVAAITWRGGSTYYADSVKGRFTISRDNAKNTVYLQMNSLKPEDTAVYYCAATYWWHRSSGWDRVEYWGQGTQVTVSS | high polyreactivity
QVQLVESGGGLVQAGGSLRLSCAASGITFYRYGMGWYRQAPGKERELVAAITSRGGSTSYADSVKGRFTISRDNAKNTVYLQMNSLKPEDTAVYYCAAFYRRDYDYWGQGTQVTVSS | high polyreactivity
QVQLVESGGGLVQAGGSLRLSCAASGSIFPLYAMGWYRQAPGKERELVAAISWSGGSTYYADSVKGRFTISRDNAKNTVYLQMNSLKPEDTAVYYCATLYISTSGYIYEGDYWGQGTQVTVSS | high polyreactivity
QVQLVESVGGLVQAGGSLRLSCAASGSIFGSYAMGWYRQAPGKERELVAAITYSGTSTYYADSVKGRFTISRDNAKNTVYLQMNSLKPEDTAVYYCYAVSRHRSKFDYWGQGTQVTVSS | high polyreactivity
QVQLVESGGGLVQAGGSLRLSCAASGFIFRRYAMGWYRPAPGKEREFVAAISWSGATTYYADSVKGRFTISRDNAKITVYLQMNSLKPEDTAVYYCAKDVRRSPSTWDNYWGQGTQVTVSS | high polyreactivity
QVQLVESGGGLVQAGGSLRLSCAASGSIFNGYVMGLYRQAPGKERELVAAISSGGRTYYADSVKGRFTISRDNAKNTVYLQMNSLKPEDTAVYYCAADIWYFDYDYWGQGTQVTVSS | high polyreactivity
QVQLDESGRGLVQAGGSLRLSCAASGSTFGRYAMGRYREAPGKERELVAAISRGGGSTYYADSVKGRFTISRDNAKNTVYLQMNSLKPEDTAVYYCATDQNYPYSGGGDYWGQGTQVTVSS | low polyreactivity
QVQLVESGGGLVQAGGSLRLSCAASGSIFAYNAMGWYRQAPGKEREFVAAISQSGGRTYYADSVKGRFTISRDNAKNTVYLQMNSLKPEDTAVYYCATDGIRLTRHRDYDYWGQGTQVTVSS | low polyreactivity
QVQLVESGGGLVQAGGSLRLSCAASGRIFRRKTMGWYRQAPGKERELVAAITSRGGSTYYADSVKGRFTISRDNAKNTFYLKMNSLIPEDTGFYYCNTRVVPEIYDYWGQGSQVTVSS | high polyreactivity
QLQLEESVGGLVQAGVSLRLSCAASGRTFRRYAMGSDRPAPAKERELVATIRSGDNTNYADSVKGRFTISRDNAKNTFYLQMKSLKPEDTAVYYCNRSPKSGQVTYLYSVNAHYDYWGQGTQVTVSS | low polyreactivity
QVQLVESGGGLVQAGGSLRLSCAASGFIFGYYAMGWYRQAPGKERELVAAINKNGGSTYYADSVKGRFTISRDNAKNTVYLQMNSLKPEDTAVYYCAARARGYAWTYDYWGQGTQVTVSS | high polyreactivity
QVQLVESGGGLVHAGGSLRLSCAASGFTFVFYVMGWYRQAPGQERELVAGISGRGASTYYADSVKGRFTISRDNAKNTVYLQMNSLIPEDTAVYYCNAVHWGGTYWGLDYWGQGTQVTVSS | low polyreactivity
QVQLVESGGGLVQAGGSLSLSCAASGRTFKYYAMGWYRQAPGKERELVATITWSGTSTNYADSVKGRFTISRDNEKHTVYLQMNSLKPEDTAVYYCAARSKRRNYDYWGQGTQVTVSS | high polyreactivity

Sequence | polyreactivity (PSR sort gate)
QVQLVESGGGLVQAGGSLRLSCAASGFTFDYNAMGWYRQAPGKERELVAAISASGGSTYYADSVKGRFTISRDTAKNTVYLQMNSLKPEDTAVYYCAAKRFSPQHRYDHWGQGTQVTVSS | high polyreactivity
QVQLVESGGGLVQAGGSLRLSCAASGSTFTTYAMGWYRQAPGKERELVAVITDSRGTYYADSVKGRFTISRDNAKNTVYLQMHSLKPEDTALYYCNRVFPPTDYEFDSWGQGTQVTVSS | low polyreactivity
QVQLVESGGRLVQAGGSLRLTCAASGSTFIIYAIGWSRQAPGQERELVAASTSGGSTYYADSVKGRFRISRDNAKNSVYLQMNSLKQEDTAVYYCAARAWRGSFRDGYWGQGTQVTVSS | high polyreactivity
QVQLVESGGGLVQAGGSLRLSCAASGRIFGGYGRGWYRQAPGKERELVAAITSGDGSTYAESVKGRFTISRDNAKNTVYLQMNSLKPEDTAVYYCADESFGYSIDITDHEYWGQGTQVTVSS | high polyreactivity
QVQLVESGGGLVQAGGSLRLSCAASGRIFPYNAMGWYRQAPGKEREFVASIRTRGVSTYYADSVKGRFTISRDNAKNTVYLQMNSLKPEDTAVYYCNAQRPGYAKGPRYDYWGQGTQVTVSS | high polyreactivity
QVQLVESGGGLVQAGGSLRLSCAASGRTLRWYAMGWYRQAPGKERELVAAIRWSGGSTYYADSVKGRFTISRDNAKNTVYLQMNSLKPEDTAVYYCAAYYVARDRRYPKAYSYEYWGQGTQVTVSS | high polyreactivity
QVQLVESGAGLVKAGGSLRLSCAASGFSFQRNAMGWYRQAPGKERELVAAINRSGGRTYYADSVKGRFTISRDNAKYTVYLQMNSLKPEDTAVYYCAADSTYEYYFWGQGTQVTVSS | high polyreactivity
QVQLVESGGGLVQAGGSLRLSCAASGFSFRYYAMGWYRQAPGKERELVAAISSGGNTRYADSVKGRFTISRDNAKNTVYLQMNSLKPEDTAVYYCARRPGAWKYVYTGDYWGQGTQVTVSS | high polyreactivity
QVQLVESGGGLVKAGGRLRLSCAASGSIFKKYAMGWYRQAPGKERELVAAITSGRSTYYADSVKGRFTISRDNAKKTVYLQMNSLKPEDTAVYYCANYRKGSLGSWGQGTQGTVSS | high polyreactivity
QVQLVESGGGLVQAGGSLRLSCAASGFTFDFYAMGWYRQAPGKDRELVAAISRSGGRTYYADSVKGRFTISRDNAKNTVYLQMNSLKPEDTAVYYCAAVDIIPVRMEYWGQGTQVTVSS | high polyreactivity
HVQLVESGGGLVQAGGSLRLSCAASGGTFTKYAMGWFRQAPGTEMELVAAISWRGTSTYYADSVKGRFTISRDNAKNTVYLQLYSLKPEDTAVHYCLPWVGYGRYKPGYKYDYWGQGTQVTVSS | high polyreactivity
QVQLVESGGGLVQAGGSLRLSCAASGITFDQYVMGWYRQAPGKERELVAAIDRSDGITYYADSVKGRFTISRDNAKNSVYLQMNSLTPEDTAVYYCAAVTYTPVYGGYYWDGGYWGQGTQVTVSS | low polyreactivity
QVQLVDSGGGLVQAGGSLRLSCAASGITLYRYVMRWYRQAPGKESELVADISGRGTSTYYADSVKGPFTISRDNAKNTVYLQMNSLKPEDTAVYYCNAEYTKTGALVIPYTYYYAEDYWGQGTQVTVSS | low polyreactivity
QVQLVESGGGLVQAGGSLRLSCAASGFTIFSYAMGWYRQAPGKERELVAAISRRGGSTYYADSVKGRFTISRDNAKNTVYLQMNSLKPEDTAVYYCAAGPRWHTNGWAYDYWGQGTQVTVSS | high polyreactivity
QVQRVESAGGLVQAGVSLRLSCAASGITFASNTMGWYRQAPGKARELVAAITRGDNTYYADSVKGRFTISRDNAKNTVYLHMNSLKPEDTAVYYCATEGYEIQYEHDYWGEGTQVTVSS | low polyreactivity
QVQLVESGGGLVQAGGSLRLSCAASGRIFYAYTMGWYRQAPGKERELVAAISGSGSTYYADSVKGRFTISRDNAKNNVYLQMNSLKPEDTAVYYCAKRYRFHFWGQGTQVTVSS | low polyreactivity
QVQLVESGGGLVQAGGSLRLSCAASGITFTAYAMGWYRHAPGKERELVATINSTGITNYADSVKGRFTISRDNAKNTVYLQMNSLKPEDTAVYYCAADLLDNSSYDGMDYWGQGTQVTVSS | low polyreactivity
QVQLVDSGGGLVQAGGSLRLSCAASGFIFRSYALGWYRQAPGKERELVAAISRRGGSTYYADSVKGRFTISRDHAKNTVYLQMNSLKPEDTAVYYCAAESRGVYGYAQSDFWGQGTQVTVSS | high polyreactivity
QVQLEESWGCLVQAGGSLRLSCAASGYTFVNYAMGWSRQAPGKEREFVAAISRSGGSTYYADSVKGRFTISRDNAKNTDYLQMHSLKPEDTAVYYCALRGYPPYKYYYWGQGTQVTVSS | high polyreactivity
QVQLVESGGGLVQAGGSLRLSCAASGRNLYYYAMGWYRQAPGKERELVAAITSGGSTYADSVKGRFTISRDNAKNTVYLQMNSLKPEDTAVYYCNARPVYGSRFYSAVRMEYWGQGTQVTVSS | low polyreactivity
QVQLVESGGGLVQAGGSLRLSCAASGFTFYSNAMGWYRQAPGKERELVAAITWRGGSTNYADSVKGRFTISRDNAKNTVYLHMNSLKPEETAVYYCAAVTYWFWPGMDYWGQGTEVTVSS | low polyreactivity
